# Assay results taken from patent publication US20240181073A1, “Antibody-Drug Conjugates Comprising an Anti-BCMA Antibody” (Sorrento Therapeutics, Inc., priority 2021, published 2024).
# Target: T1, Human BCMA (B Cell Maturation Antigen) (human, UniProt Q02223 1-184)
# T1 sequence: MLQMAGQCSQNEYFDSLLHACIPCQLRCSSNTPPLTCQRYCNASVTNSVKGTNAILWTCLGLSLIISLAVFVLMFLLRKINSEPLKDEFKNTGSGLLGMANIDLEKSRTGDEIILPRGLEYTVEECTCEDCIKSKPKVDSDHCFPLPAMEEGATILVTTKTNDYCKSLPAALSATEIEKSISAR
# Assay: cell-based or functional assay
Binder,"EC50 of cell viability (Cell Titer-Glo), MM.1R (BCMA+) cells, 5-day assay [nM]","EC50 of cell viability (Cell Titer-Glo), NCI-H929 (BCMA+) cells, 5-day assay [nM]"
"anti-BCMA-AB1-Compound 1 (antibody, human IgG1, V domains shown, drug-linker Compound 1 on antibody cysteine thiols (positions not stated)) VH: EVQLVESGGGLVKPGGSLRLSCAASGFTSSTAWMSWVRQAPGKGLEWVGRIKSKSDGGTTDYAAPVKGRFTISRDDSKNTLFLQMNSLKTEDTAVYYCAKGGGTYGYWGQGTTVTVSS VL: QSVLTQPASVSGSPGQSVTISCTGTSSAHGGHYYVSWYQQHPGKAPKLMIYDVSNRPSGVSNRFSGSKSGNTASLTISGLQAEDEADYYCGSYTSSGSYVFGTGTKLTVL",1.02,0.168
"anti-BCMA-AB1-Compound 2 (antibody, human IgG1, V domains shown, drug-linker Compound 2 on antibody cysteine thiols (positions not stated)) VH: EVQLVESGGGLVKPGGSLRLSCAASGFTSSTAWMSWVRQAPGKGLEWVGRIKSKSDGGTTDYAAPVKGRFTISRDDSKNTLFLQMNSLKTEDTAVYYCAKGGGTYGYWGQGTTVTVSS VL: QSVLTQPASVSGSPGQSVTISCTGTSSAHGGHYYVSWYQQHPGKAPKLMIYDVSNRPSGVSNRFSGSKSGNTASLTISGLQAEDEADYYCGSYTSSGSYVFGTGTKLTVL",0.987,0.316

# Target: T1, Human BCMA (B Cell Maturation Antigen)
# Assay: cell-based or functional assay
# Remark: another data set of the same source
Binder,"EC50 of cell viability (Cell Titer-Glo), MM.1R (BCMA+) cells, 4-day assay [nM]","EC50 of cell viability (Cell Titer-Glo), NCI-H929 (BCMA+) cells, 4-day assay [nM]"
"anti-BCMA-AB1-Compound 7 (antibody, human IgG1, V domains shown, drug-linker Compound 7 on antibody cysteine thiols (maleimide conjugation; positions not stated)) VH: EVQLVESGGGLVKPGGSLRLSCAASGFTSSTAWMSWVRQAPGKGLEWVGRIKSKSDGGTTDYAAPVKGRFTISRDDSKNTLFLQMNSLKTEDTAVYYCAKGGGTYGYWGQGTTVTVSS VL: QSVLTQPASVSGSPGQSVTISCTGTSSAHGGHYYVSWYQQHPGKAPKLMIYDVSNRPSGVSNRFSGSKSGNTASLTISGLQAEDEADYYCGSYTSSGSYVFGTGTKLTVL",37.7,2.64
"anti-BCMA-AB1-Compound 4 (antibody, human IgG1, V domains shown, drug-linker Compound 4 on antibody cysteine thiols (C-lock conjugation; positions not stated)) VH: EVQLVESGGGLVKPGGSLRLSCAASGFTSSTAWMSWVRQAPGKGLEWVGRIKSKSDGGTTDYAAPVKGRFTISRDDSKNTLFLQMNSLKTEDTAVYYCAKGGGTYGYWGQGTTVTVSS VL: QSVLTQPASVSGSPGQSVTISCTGTSSAHGGHYYVSWYQQHPGKAPKLMIYDVSNRPSGVSNRFSGSKSGNTASLTISGLQAEDEADYYCGSYTSSGSYVFGTGTKLTVL",> 1000,13.1
"anti-BCMA-AB1-Compound 6 (antibody, human IgG1, V domains shown, drug-linker Compound 6 on antibody cysteine thiols (C-lock conjugation; positions not stated)) VH: EVQLVESGGGLVKPGGSLRLSCAASGFTSSTAWMSWVRQAPGKGLEWVGRIKSKSDGGTTDYAAPVKGRFTISRDDSKNTLFLQMNSLKTEDTAVYYCAKGGGTYGYWGQGTTVTVSS VL: QSVLTQPASVSGSPGQSVTISCTGTSSAHGGHYYVSWYQQHPGKAPKLMIYDVSNRPSGVSNRFSGSKSGNTASLTISGLQAEDEADYYCGSYTSSGSYVFGTGTKLTVL",16.6,2.38
"anti-BCMA-AB1-Compound 5 (antibody, human IgG1, V domains shown, drug-linker Compound 5 on antibody cysteine thiols (C-lock conjugation; positions not stated)) VH: EVQLVESGGGLVKPGGSLRLSCAASGFTSSTAWMSWVRQAPGKGLEWVGRIKSKSDGGTTDYAAPVKGRFTISRDDSKNTLFLQMNSLKTEDTAVYYCAKGGGTYGYWGQGTTVTVSS VL: QSVLTQPASVSGSPGQSVTISCTGTSSAHGGHYYVSWYQQHPGKAPKLMIYDVSNRPSGVSNRFSGSKSGNTASLTISGLQAEDEADYYCGSYTSSGSYVFGTGTKLTVL",20.5,3.04
"anti-BCMA-AB1-Compound 8 (antibody, human IgG1, V domains shown, drug-linker Compound 8 on antibody cysteine thiols (maleimide conjugation; positions not stated)) VH: EVQLVESGGGLVKPGGSLRLSCAASGFTSSTAWMSWVRQAPGKGLEWVGRIKSKSDGGTTDYAAPVKGRFTISRDDSKNTLFLQMNSLKTEDTAVYYCAKGGGTYGYWGQGTTVTVSS VL: QSVLTQPASVSGSPGQSVTISCTGTSSAHGGHYYVSWYQQHPGKAPKLMIYDVSNRPSGVSNRFSGSKSGNTASLTISGLQAEDEADYYCGSYTSSGSYVFGTGTKLTVL",348,5.15

# Target: T1, Human BCMA (B Cell Maturation Antigen)
# Assay: cell-based or functional assay
# Remark: another data set of the same source
Binder,"EC50 of cell viability (Cell Titer-Glo), MM.1R (BCMA+) cells [nM]","EC50 of cell viability (Cell Titer-Glo), NCI-H929 (BCMA+) cells [nM]"
"anti-BCMA-AB2-Compound 8 (antibody, V domains shown, drug-linker Compound 8 on antibody cysteine thiols (positions not stated)) VH: EVQLVESGGGLVKPGGSLRLSCAASGFTSSTAWMSWVRQAPGKGLEWVGRIKSKSDGGTTDYAAPVKGRFTISRDDSKNTLFLQMNSLKTEDTAVYYCAKGGGTYGYWGQGTTVTVSS VL: QSALTQPASVSGSPGQSVTISCTGTSSDGGGHTYVSWYQQHPGKAPKLMIYDVSNRPSWVSNRFSGSKSGNTASLTISGLQAEDEADYYCGSYTSSGSYVFGTGTKLTVL",> 1000,29.7
"anti-BCMA-AB2-Compound 4 (antibody, V domains shown, drug-linker Compound 4 on antibody cysteine thiols (positions not stated)) VH: EVQLVESGGGLVKPGGSLRLSCAASGFTSSTAWMSWVRQAPGKGLEWVGRIKSKSDGGTTDYAAPVKGRFTISRDDSKNTLFLQMNSLKTEDTAVYYCAKGGGTYGYWGQGTTVTVSS VL: QSALTQPASVSGSPGQSVTISCTGTSSDGGGHTYVSWYQQHPGKAPKLMIYDVSNRPSWVSNRFSGSKSGNTASLTISGLQAEDEADYYCGSYTSSGSYVFGTGTKLTVL",> 1000,59
"anti-BCMA-AB2-Compound 3 (antibody, V domains shown, drug-linker Compound 3 on antibody cysteine thiols (positions not stated)) VH: EVQLVESGGGLVKPGGSLRLSCAASGFTSSTAWMSWVRQAPGKGLEWVGRIKSKSDGGTTDYAAPVKGRFTISRDDSKNTLFLQMNSLKTEDTAVYYCAKGGGTYGYWGQGTTVTVSS VL: QSALTQPASVSGSPGQSVTISCTGTSSDGGGHTYVSWYQQHPGKAPKLMIYDVSNRPSWVSNRFSGSKSGNTASLTISGLQAEDEADYYCGSYTSSGSYVFGTGTKLTVL",55.3,7.31
"anti-BCMA-AB2-Compound 5 (antibody, V domains shown, drug-linker Compound 5 on antibody cysteine thiols (positions not stated)) VH: EVQLVESGGGLVKPGGSLRLSCAASGFTSSTAWMSWVRQAPGKGLEWVGRIKSKSDGGTTDYAAPVKGRFTISRDDSKNTLFLQMNSLKTEDTAVYYCAKGGGTYGYWGQGTTVTVSS VL: QSALTQPASVSGSPGQSVTISCTGTSSDGGGHTYVSWYQQHPGKAPKLMIYDVSNRPSWVSNRFSGSKSGNTASLTISGLQAEDEADYYCGSYTSSGSYVFGTGTKLTVL",143,10
"anti-BCMA-AB2-Compound 6 (antibody, V domains shown, drug-linker Compound 6 on antibody cysteine thiols (positions not stated)) VH: EVQLVESGGGLVKPGGSLRLSCAASGFTSSTAWMSWVRQAPGKGLEWVGRIKSKSDGGTTDYAAPVKGRFTISRDDSKNTLFLQMNSLKTEDTAVYYCAKGGGTYGYWGQGTTVTVSS VL: QSALTQPASVSGSPGQSVTISCTGTSSDGGGHTYVSWYQQHPGKAPKLMIYDVSNRPSWVSNRFSGSKSGNTASLTISGLQAEDEADYYCGSYTSSGSYVFGTGTKLTVL",129,9.44
"anti-BCMA-AB2-Compound 7 (antibody, V domains shown, drug-linker Compound 7 on antibody cysteine thiols (positions not stated)) VH: EVQLVESGGGLVKPGGSLRLSCAASGFTSSTAWMSWVRQAPGKGLEWVGRIKSKSDGGTTDYAAPVKGRFTISRDDSKNTLFLQMNSLKTEDTAVYYCAKGGGTYGYWGQGTTVTVSS VL: QSALTQPASVSGSPGQSVTISCTGTSSDGGGHTYVSWYQQHPGKAPKLMIYDVSNRPSWVSNRFSGSKSGNTASLTISGLQAEDEADYYCGSYTSSGSYVFGTGTKLTVL",259,19.4
